Experimental data published in patent US20220389400.

Biological target: amyloid β (UniProt P05067)
Sequence of UniProt P05067 (P05067 whole entry, looked up): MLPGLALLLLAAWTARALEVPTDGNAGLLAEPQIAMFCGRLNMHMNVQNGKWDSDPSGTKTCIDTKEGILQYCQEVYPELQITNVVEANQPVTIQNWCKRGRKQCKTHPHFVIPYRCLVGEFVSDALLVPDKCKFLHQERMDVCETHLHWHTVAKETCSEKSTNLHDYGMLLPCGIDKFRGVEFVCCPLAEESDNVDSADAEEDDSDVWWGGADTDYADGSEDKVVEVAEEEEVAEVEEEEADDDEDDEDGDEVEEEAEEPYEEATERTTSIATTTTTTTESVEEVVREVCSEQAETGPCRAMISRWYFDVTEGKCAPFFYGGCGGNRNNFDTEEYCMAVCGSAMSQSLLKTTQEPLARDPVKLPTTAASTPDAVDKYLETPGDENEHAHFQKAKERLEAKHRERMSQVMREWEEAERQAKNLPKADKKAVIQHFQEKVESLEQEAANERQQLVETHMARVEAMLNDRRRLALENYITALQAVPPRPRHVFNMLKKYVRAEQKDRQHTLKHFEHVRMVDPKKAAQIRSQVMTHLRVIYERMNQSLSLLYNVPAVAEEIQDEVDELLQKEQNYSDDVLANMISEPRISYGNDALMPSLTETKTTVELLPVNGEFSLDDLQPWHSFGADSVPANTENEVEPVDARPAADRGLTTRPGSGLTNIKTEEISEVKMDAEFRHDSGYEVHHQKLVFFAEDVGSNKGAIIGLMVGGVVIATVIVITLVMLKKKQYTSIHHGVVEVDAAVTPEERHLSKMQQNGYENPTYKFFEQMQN

Row | Substance | activity to degrade amyloid β (Western blot) | protease activity; amount of amyloid β by Western blot (4G8)
1 | NIaΔ20 (20 amino acids removed from the C-terminus) | showed activity similar to normal NIa | 
2 | NIaΔ24 (24 amino acids removed from the C-terminus) | showed activity similar to normal NIa | 
3 | NIaΔ28 (28 amino acids removed from the C-terminus) | showed significantly reduced activity | 
4 | TuMV-derived NIa protease |  | amyloid β disappeared after treatment with NIa and its fragment for 1 hour
